# Source: PMC8692152, “Cellular Id1 inhibits hepatitis B virus transcription by interacting with the novel covalently closed circular DNA-binding protein E2F4” (International Journal of Biological Sciences, 2022)
# B1: E2F4_(1-88) (domain or fragment)
# chain: not shown
# notes: The section on ITC sample preparation describes an E2F4_(1-88) protein purified on a GST column and cut with 3C protease; also called pET28-E2F4_(1-88)
# Biological target: the molecule itself
# Assay: SEC; Superdex 75, 50 mM Tris-HCl pH 8.0, 300 mM NaCl; calibrated with molecular mass standards
protein,measurement,value
B1,stoichiometry N,2
